# Measurements taken from publication PMC2576468, “The orthologue of the "acatalytic" mammalian ART4 in chicken is an arginine-specific mono-ADP-ribosyltransferase” (BMC Molecular Biology, 2008).
# B1: recombinant chicken ART4 (chART4) (Gallus gallus) (protein)
# chain: SHLMMDMALHSFDDQYLGCREQMMEELERGDYFQKEIAANKNYSSLWKKAQEALLKSSVGLLREMHDSHATALMAYTMNSSLHSQLNWATSTAGRSPEQYRHNFSFKYFHFYLTTAIQIMKQWQSSKDNVRKRHCYRVHRGVKDLYIKATVGSIVRFGRFTSTSCLWNEAQKFGNETLFTVTTCLGAAMQGFSYYTSEKEVLIPPYEIFLVKNFFRTRRGNRLHLHSVGNYSKYHYQLLEASRIKNGGSTA
# notes: N-glycosylated
# Substrate: NC(=O)c1ccc[n+]([C@@H]2O[C@H](COP(=O)([O-])OP(=O)(O)OC[C@H]3O[C@@H](n4cnc5c4ncn4ccnc54)[C@H](O)[C@@H]3O)[C@@H](O)[C@H]2O)c1
# Assay: purified protein
# Assay type: biochemical, Gallus gallus
# Settings: poly-L-arginine 1 mg/ml as acceptor, PBS pH 7.4, room temperature, glycosylated protein (no PNGase F)
protein,measurement,value
B1,Km,1.0 ± 0.18 µM
